# From US20150239990A1 (published 2015)
# Numbering of substitutions follows the chain as printed.
# B1: hum 1E2 (fully humanized VL and VH fused to human C-lambda and CH1), Fab displayed on phage (Fab, V domains shown)
# VH: EVQLVESGGGLVQPGGSLRLSCAASGFTFSNYWMYWVRQAPGKGLEWVSAINAAGSTYYADSVKGRFTISRDNSKNTLYLQMNSLRAEDTAVYYCANLPRWGQGTLVTVSS
# VL: QTVVTQEPSFSVSPGGTVTLTCGLSSGSVTSGNYPGWYQQTPGQAPRTLIYNTNSRSSGVPDRFSGSILGNKAALTITGAQADDESDYYCAVYIGSSSYPVVFGGGTKLTVLG
# notes: Tested as a gene3-Fab fusion on phage
# B2: wt 1E2 (llama VL and VH fused to human C-lambda and CH1), Fab displayed on phage (Fab, V domains shown)
# VH: B1 VH with A23T, S74A, R86Q, A87S, V92L, L106Q
# VL: B1 VL with F10L, T41K, S57Y, D62N, L69S, A82P, D83E, S86A, K108H
# notes: as for B1
# B3: safe variant 1E2 (partially humanized, fused to human C-lambda and CH1), Fab displayed on phage (Fab, V domains shown)
# VH: B1 VH with R86Q, A87S, L106Q
# VL: B1 VL with T41K, A82P, K108H
# notes: also called safe 1E2
# B4: safe variant 1F2 (partially humanized, fused to human C-lambda and CH1), Fab displayed on phage (Fab, V domains shown)
# VH: EVQLLESGGGLVQPGGSLRLSCAASGFTFSTYAMSWVRQAPGKGPEWVSGINTGGGSTGYADSVKGRFTISRDNSKNTLYLQMNSLRPEDTAVYYCAKDWMATTPWGQGTQVTVSS
# VL: QTVVTQEPSFSVSPGGTVTLTCGLSSGSVTTNNYPGWFQQTPGQAPRTLIYNTNNRHSGVPSRFSGSILGNKAALTITGAQADDESDYYCALYMSSGSNNAVFGGGTKLTVLG
# notes: also called safe 1F2
# B5: wt 1F2 (llama VL and VH fused to human C-lambda and CH1), Fab displayed on phage (Fab, V domains shown)
# VH: B4 VH with L5V, S75A, R87K
# VL: B4 VL with T2A, F10L, L69S, A82P, D83E, S86A, K108H
# notes: Tested as a gene3-Fab fusion on phage (crude phage extract)
# B6: hum 1F2 (fully humanized VL and VH fused to human C-lambda and CH1), Fab displayed on phage (Fab, V domains shown)
# VH: B4 VH with P45L, P88A, Q111L
# VL: B4 VL with F38Y, H57S, S62D
# notes: as for B1
# B7: wild type llama 1E2 Fab (Fab, V domains shown)
# VH: B1 VH with A23T, S74A, R86Q, A87S, V92L, L106Q
# VL: B1 VL with F10L, T41K, S57Y, D62N, L69S, A82P, D83E, S86A, K108H
# notes: Produced from phagemid pCB3; Hexahistidine and myc tags at the C-terminus of the Fd; Captured by anti-myc; also called Fab 1E2
# B8: Fab 1F2 (llama Fab selected against IL-1Beta) (Fab, V domains shown)
# VH: B4 VH with L5V, S75A, R87K
# VL: B4 VL with T2A, F10L, L69S, A82P, D83E, S86A, K108H
# notes: Original clone from the llama Fab phage library
# B9: chimeric 1E2 Fab (llama VL and VH of 1E2 fused to human C-lambda and CH1) (Fab, V domains shown)
# VH: B1 VH with A23T, S74A, R86Q, A87S, V92L, L106Q
# VL: B1 VL with F10L, T41K, S57Y, D62N, L69S, A82P, D83E, S86A, K108H
# notes: Purified from E. coli (pCB5, no gene3); Myc and hexahistidine tags on the Fd; also called wt 1E2
# B10: Fab 1E2 wt VL / safe VH (with human CL and human CH1) (Fab, V domains shown)
# VH: B1 VH with R86Q, A87S, L106Q
# VL: B1 VL with F10L, T41K, S57Y, D62N, L69S, A82P, D83E, S86A, K108H
# notes: Purified from E. coli; also called wt/safe; wt VA/safe VH
# B11: Fab 1E2 wt VL / hum VH (with human CL and human CH1) (Fab, V domains shown)
# VH: B1 VH
# VL: B1 VL with F10L, T41K, S57Y, D62N, L69S, A82P, D83E, S86A, K108H
# notes: Purified from E. coli; also called wt/hum; wt VA/hum VH
# Target: T1, neutravidin (UniProt P02701 25-152)
# T1 construct: Capture reagent of the phage ELISA; Wells without biotinylated IL-1Beta served as the negative control
# T1 sequence (P02701 25-152): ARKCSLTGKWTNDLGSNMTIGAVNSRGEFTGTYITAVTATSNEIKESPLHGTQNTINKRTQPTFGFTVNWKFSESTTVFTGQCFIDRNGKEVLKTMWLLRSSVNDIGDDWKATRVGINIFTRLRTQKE
# Assay: phage ELISA on neutravidin coated wells, anti-M13-HRP detection
# Description: (§1) Four clones for each Fab were tested to overcome clonal variation (due to bacterial growth, phage production efficiency and toxicity etc. . . . ). Phage ELISA was performed by capturing of biotinylated IL-1Beta on neutravidin coated Maxisorp plate and subsequent incubation of crude phage extract (i.e. bacterial medium). After extensive washing, bound phages were detected with an anti-M13-HRP monoclonal antibody.
row,Binder,binding result
1,B1,no binding
2,B2,no binding
3,B3,no binding
4,B4,no binding
5,B5,no binding
6,B6,no binding

# Target: T2, biotinylated human IL-1Beta (human, UniProt P01584 117-269, biotinylated (positions not stated))
# T2 construct: In the assays it was biotinylated; also called biot-IL-1Beta
# Assay: phage display selection and phage ELISA on biotinylated IL-1Beta
row,Binder,binding result
1,B7,binds
2,B8,binds

# Target: T2, biotinylated human IL-1Beta
# Assay: ELISA: Fab captured on anti-myc plate, biotinylated human IL-1Beta, streptavidin-HRP
# Description: For this the Fabs were captured on an anti-myc coated Maxisorp plate. Biotinylated human IL-1Beta was added and bound cytokine was detected using HRP-conjugated streptavidin.
# The purified llama and chimeric 1E2 Fabs described above were captured on anti-myc coated maxisorp plates. After incubation with biotinylated human IL-1Beta and extensive washing, the biotinylated IL-1Beta bound to the Fab was detected using HRP-conjugated streptavidin.
row,Binder,binding result
1,B9,binds
2,B10,binds
3,B11,binds

# Target: T2, biotinylated human IL-1Beta
# Assay: phage ELISA: biotinylated IL-1Beta captured on neutravidin, crude phage, anti-M13-HRP
# Description: as §1
row,Binder,binding result
1,B6,binds
